Laboratory results from patent US20220024981A1 (Novartis, published 2022).
Bridge positions count the residues as written; N and C are the ends. Square brackets hold non-standard residues; d marks the D form. Bip = N[C@@H](Cc1ccc(-c2ccccc2)cc1)C(=O)O; NMeA = CN[C@@H](C)C(=O)O

Target: T1, Human PCSK9 Alexa Fluor 647 (human, UniProt Q8NBP7 31-692, limits assumed, Alexa Fluor 647 label (site not stated))
T1 construct: Labelled tracer of the TR-FRET assay, 16 nM stock; also called proprotein convertase subtilisin/kexin type 9
Assay: TR-FRET competition: PCSK9-Alexa Fluor 647 vs LDLR ECD-Eu kryptate
Method: A Proxi plate-low volume assay plate was used for the assay. […] Following a 30 minute incubation, 5 uL of 4 nM Human LDLR extracellular domain-Europium Kryptate was added and the mixture was incubated for an additional 2 hours.
The TR-FRET signal was measured on an EnVision or PheraStar instrument with a 60 μs delay, 330 nm excitation and 665 nm emission (FRET), and 330 nm excitation and 615 nm (Europium). The FRET ratio (FRET/Europium) was used for calculations.

T1 sequence (Q8NBP7 31-692 limits assumed): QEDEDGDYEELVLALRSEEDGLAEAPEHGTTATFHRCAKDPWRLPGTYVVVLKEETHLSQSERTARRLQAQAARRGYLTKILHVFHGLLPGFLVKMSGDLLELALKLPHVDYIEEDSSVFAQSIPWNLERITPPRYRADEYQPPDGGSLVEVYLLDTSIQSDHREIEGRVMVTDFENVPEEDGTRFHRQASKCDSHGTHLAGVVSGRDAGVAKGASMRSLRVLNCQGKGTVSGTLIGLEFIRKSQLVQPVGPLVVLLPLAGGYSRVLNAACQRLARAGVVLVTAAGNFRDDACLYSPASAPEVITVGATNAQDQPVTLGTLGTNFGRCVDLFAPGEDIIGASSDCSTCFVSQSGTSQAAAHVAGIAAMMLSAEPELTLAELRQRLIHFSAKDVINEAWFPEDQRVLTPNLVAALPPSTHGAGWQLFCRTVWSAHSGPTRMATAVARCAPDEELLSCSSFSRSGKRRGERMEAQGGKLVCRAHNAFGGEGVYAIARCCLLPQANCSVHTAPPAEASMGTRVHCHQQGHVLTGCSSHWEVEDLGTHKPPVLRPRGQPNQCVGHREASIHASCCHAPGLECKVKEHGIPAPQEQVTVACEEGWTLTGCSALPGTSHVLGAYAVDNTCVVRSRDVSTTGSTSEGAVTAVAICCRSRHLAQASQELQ

B1: Ac*-F-V-P-T-T-B-(N-Me)A-B-(N-Me)A-A-A-P-C*-NHEt (peptide)
peptide: {CH2CO}-FVPTT[Bip][NMeA][Bip][NMeA]AAPC-NHEt
modifications: thioether N-13
SMILES: CCNC(=O)[C@@H]1CSCC(=O)N[C@@H](Cc2ccccc2)C(=O)N[C@@H](C(C)C)C(=O)N2CCC[C@H]2C(=O)N[C@@H]([C@@H](C)O)C(=O)N[C@@H]([C@@H](C)O)C(=O)N[C@@H](Cc2ccc(-c3ccccc3)cc2)C(=O)N(C)[C@@H](C)C(=O)N[C@@H](Cc2ccc(-c3ccccc3)cc2)C(=O)N(C)[C@@H](C)C(=O)N[C@@H](C)C(=O)N[C@@H](C)C(=O)N2CCC[C@H]2C(=O)N1
notes: also called 3-4; Ex. No. 3-4
Q: With B1 as the binder, how does the IC50 read?
A: 1.4 nM

Q: And the Maximum % inhibition?
A: 49%
